Source: US20160152676A1

Target: gp41 of HIV-1 IIIB virus (HIV-1 IIIB) (UniProt P04578)
Assay: cell-based or functional assay

## C34-ELMO (from UniProt Q92556 553-675) (designed binder)
  inhibition of HIV-1 infection in cellulo (GFP+ CEM-GFP cells, flow cytometry); concentration at which some inhibition is seen: 250 nM
